{"source": "paper PMC11667226", "about": "(Theranostics, 2025)", "key": {"clinical": {"assay": "clinical", "protocol": "The blood samples were collected in Vacuette® 3 mL K2E K2EDTA vacutainer blood collection tubes, centrifuged (2500 rpm for 10 min at 4 °C), and the plasma was stored in a -20 °C freezer. Plasma concentrations were measured based on liquid chromatography with tandem mass spectrometric detection (LC-MS/MS) validated according to good laboratory practice (GLP), (LabCorp, Huntingdon, UK). The PK analysis was performed using a non-compartmental analysis method. […] The terminal phase half-life (T½) was calculated using terminal phase rate constant, which resulted from linear regression of the terminal linear portion of the log-concentration vs. time curve.\nThe primary endpoint was the sensitivity for detection of oral and oropharyngeal cancer verified by histology. The secondary endpoints were divided into efficacy and safety & tolerability. Regarding efficacy, the TBR and intraoperative tumor signal intensity were endpoints. The pharmacokinetics profile determined by a non-compartmental analysis was specified by peak plasma concentration, time of peak plasma concentration, the area under the plasma concentration-time curve from time-zero extrapolated to infinity, and terminal half-life. The safety & tolerability were assessed with adverse event monitoring, laboratory parameters, ECGs, vital signs, and physical examinations."}, "[1]": {"conditions": "40 patients with malignant glioblastoma, 1 to 48 mg; ref [15],[33]; cited from earlier work"}, "[2]": {"test_system": "neck lymph node metastasis", "assay": "Optical visualization of neck lymph node metastasis", "assay_type": "in vivo, human", "protocol": "(§1) All patients were treated surgically according to the national guidelines. The primary investigator (PI) was part of the surgical team in all procedures. A surgical robot system (DaVinci Si, Intuitive) was used for TORS in the two patients with OPSCC. The surgeons were not allowed to resect tissue based on intraoperative detected fluorescence signal but complied with standard of care. Depending on the clinical TNM staging (based on clinical examination, ultrasonography examination of the neck, and MRI or CT scans), either sentinel lymph node biopsy (using 99^mTc-nanocoll) or neck dissection was performed for neck management. Post-surgical (chemo)radiation was prescribed according to national guidelines at a multidisciplinary conference. The pre-, intraoperative, and ex-vivo optical images were obtained using the open-field imaging system Elevision® model VS3 Iridium-Visionsense Infrared (IR) Fluorescence, Vision System (Medtronics, USA). Image profile: NIR_highcontrast or NIR_contrast, excitation laser: 805 nm. The Elevision IR system generates real-time optical imaging merged with the color video recording on a viewer screen. The intensity-dependent multi-color NIR overlay was presented in parallel with white-light and NIR grayscale images. The camera head was mounted on a maneuverable arm over the surgical field with sterile draping. The preferred camera-to-tumor distance was 20-40 centimeters, but the system also allows positioning at closer or longer distances to areas of interest. For optimal imaging, all other light sources in the OR were switched off and window blinds were closed. The imaging system itself provides powerful white light illumination of the surgical field when imaging is performed.\nThe exploratory endpoints were defined as: 1) Morphological co-localization between optical signal, tumor tissue, and target (i.e. uPAR) expression, 2) Optical visualization of local neck lymph node metastasis, and 3) Longitudinal investigation of the optimal signal intensity for intraoperative imaging."}, "[3]": {"test_system": "oral and oropharyngeal squamous cell carcinoma (OSCC, OPSCC)", "assay": "Intraoperative near-infrared optical imaging: tumor-to-background ratio and absolute intensities (Elevision)", "assay_type": "in vivo, human", "conditions": "for TBR (mean (range)): preoperative NIR image, max tumor ROI / mean of 3 background ROIs, Elevision, 805 nm", "protocol": "as §1\nAll images and videos were stored in JPG- and mp4-file format. The following images were captured for all 16 patients who completed the trial: 1) Preoperative images of the tumor. 2) Intraoperative images of the tumor and metastatic lymph nodes. 3) Images of the surgical cavity (i.e., tumor bed) after tumor resection. 4) Ex-vivo images of the resected tumor specimen on the back-table, see Figure 2.\nFor imaging analysis, the TBR was calculated as the maximum fluorescence intensity of the tumor region of interest (ROI) divided by the mean fluorescence intensity of 3 background ROIs on a preoperative NIR image by use of an in-house designed Python-based annotation tool. The tumor ROIs were drawn based on information from intraoperative clinical observations, and preoperative white-light and NIR images. Background ROIs were defined within the soft tissues adjacent to the tumor. The absolute numeric intensities were obtained by adjusting the fluorescence intensity for the specific gain values applied by the imaging system."}}, "note": "Marks after values point to notes of the source that are not given here. Non-standard residues stand in square brackets, D forms with d. Residues, ends and D or L forms follow the SMILES beside them. *: point of attachment. X1 = CC1(C)C(=CC=CC=CC=CC2=[N+](CCCCCC(=O)*)c3ccc4ccccc4c3C2(C)C)N(CCCCS(=O)(=O)[O-])c2ccc3ccccc3c21; Cha = N[C@@H](CC1CCCCC1)C(=O)O"}
{"smiles": "CC(C)C[C@H](NC(=O)[C@H](Cc1ccc(O)cc1)NC(=O)[C@@H](CCCNC(=N)N)NC(=O)[C@@H](CO)NC(=O)[C@H](Cc1ccccc1)NC(=O)[C@H](CC1CCCCC1)NC(=O)[C@H](CC(=O)O)NC(=O)[C@H](CCC(=O)O)NC(=O)[C@H](CCC(=O)O)NC(=O)CCCCC[N+]1=C(C=CC=CC=CC=C2N(CCCCS(=O)(=O)[O-])c3ccc4ccccc4c3C2(C)C)C(C)(C)c2c1ccc1ccccc21)C(=O)N[C@@H](Cc1c[nH]c2ccccc12)C(=O)N[C@@H](CO)C(=O)O", "note": "[FG001, ICG-Glu-Glu-AE105] (X1-EED[Cha]F[dS][dR]YLWS-OH; N-terminus and C-terminus assumed)", "values": [{"measurement": "Extrapolation to AUC from 0 to infinity (AUC0-inf)", "setting": "clinical; all patients with a valid terminal phase", "result": "< 25", "unit": "%"}, {"measurement": "Mean half-life of FG001", "setting": "clinical; human plasma, based on the plasma concentration measurements, all evaluable patients", "result": "approximately 12 hours"}, {"measurement": "Maximum concentration (mean (SD))", "setting": "clinical; human plasma, single 4 mg i.v. dose, n = 4, LC-MS/MS", "result": "577 (373)* ng/mL"}, {"measurement": "Time of peak plasma concentration", "setting": "clinical; human plasma, single i.v. dose, first sample at 1 hr ± 15 min", "result": "within the first hour"}, {"measurement": "Tmax", "setting": "clinical; human, plasma, iv", "result": 1, "unit": "h"}, {"measurement": "Cmax", "setting": "clinical; human, plasma, iv, 16 mg", "result": 4300, "unit": "ng/mL"}, {"measurement": "Cmax", "setting": "clinical; human, plasma, iv, 36 mg", "result": 8130, "unit": "ng/mL"}, {"measurement": "half-life", "setting": "clinical; human, plasma, iv, 36 mg", "result": 11.2, "unit": "h"}, {"measurement": "Time of peak plasma concentration, one outlier", "setting": "clinical; one patient in the 4 mg group", "result": 12.8, "unit": "h"}, {"measurement": "Grade I drug-related adverse events, number", "setting": "[1]", "result": 3}, {"measurement": "Grade II drug-related adverse events, number", "setting": "[1]", "result": 1}, {"measurement": "Safety and tolerability", "setting": "[1]", "result": "safe and well-tolerated"}, {"measurement": "Intraoperative visualization of clinical neck metastasis", "setting": "[2]; during neck dissection, confirmed on back table and by pathology", "result": "clearly visualized"}, {"measurement": "Uptake in adjacent unaffected lymph nodes", "setting": "[2]; no systematic imaging of lymph nodes without clinical evidence of metastasis", "result": "No uptake"}, {"measurement": "Optical signal of harvested sentinel nodes", "setting": "[2]; two cases with SNB staging, nodes all negative for metastatic deposits on final pathology", "result": "absent or weak optical signal"}, {"measurement": "TBR (mean (range))", "setting": "[3]; FG001 4 mg i.v., n = 4 completed", "result": "3.07 (2.30 - 3.48)*"}, {"measurement": "TBR (mean (range))", "setting": "[3]; FG001 16 mg i.v., n = 8", "result": "2.91 (2.02 - 3.95)"}, {"measurement": "TBR (mean (range))", "setting": "[3]; FG001 36 mg i.v., n = 4", "result": "3.08 (2.68 - 3.46)"}, {"measurement": "TBR (contrast for demarcation of tumors), consistently", "setting": "[3]; all patients, even at the lowest dose", "result": "above 2"}]}
